# T1: monkey TIM-3 on CHOK1 stable cell line (CHOK1-cTIM-3) (monkey)
# T1 chain: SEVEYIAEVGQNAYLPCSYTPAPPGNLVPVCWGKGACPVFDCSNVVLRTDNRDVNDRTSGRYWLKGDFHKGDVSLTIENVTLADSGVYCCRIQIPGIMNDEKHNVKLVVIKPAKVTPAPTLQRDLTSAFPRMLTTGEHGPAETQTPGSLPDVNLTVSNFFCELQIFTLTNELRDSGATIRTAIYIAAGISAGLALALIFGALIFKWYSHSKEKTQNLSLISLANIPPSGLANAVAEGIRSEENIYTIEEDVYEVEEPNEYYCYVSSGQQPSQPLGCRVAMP
# T2: murine TIM-3 extracellular domain protein with hFc tag (mTIM-3-hFc) (mouse, UniProt Q8VIM0 29-191)
# T2 construct: also called mouse TIM-3 extracellular domain protein; not shown: human IgG Fc fragment (hFc) of the pCpC vector
# T2 chain: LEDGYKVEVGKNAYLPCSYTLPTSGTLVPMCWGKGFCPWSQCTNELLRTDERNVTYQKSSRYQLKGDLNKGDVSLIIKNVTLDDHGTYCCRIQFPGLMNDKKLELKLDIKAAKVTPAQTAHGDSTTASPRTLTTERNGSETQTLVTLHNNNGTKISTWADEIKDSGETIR
# T3: human TIM-3 extracellular domain protein with hFc tag (hTIM-3-hFc) (human, UniProt Q8TDQ0 22-200)
# T3 construct: not shown: human IgG Fc fragment (hFc) of the pCpC vector
# T3 sequence: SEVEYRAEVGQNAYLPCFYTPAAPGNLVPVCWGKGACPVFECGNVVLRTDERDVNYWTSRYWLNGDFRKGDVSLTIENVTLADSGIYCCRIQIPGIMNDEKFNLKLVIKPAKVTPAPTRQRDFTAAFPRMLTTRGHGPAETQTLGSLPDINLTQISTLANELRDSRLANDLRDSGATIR
# B1: 18D2H2 fully human TIM-3 antibody (human IgG4, kappa) (antibody, V domains shown)
# VH: EVQLVESGGDLVQPGGSLRLSCAASGFTFSTYWMTWVRQAPGRGLEWVANIKQDGSAKYYVDSVKGRFTLSRDDAKNSLYLQMNSLRAEDTAVYYCARGSNWFDYWGQGTLVTVSS
# VL: ETVMTQSPATLSVSPGERATLSCRANQNVYSNLAWYQQKPGQAPRLLIYDASTRATGFPARFSGSGSGTEFTLTISSLQSEDFAVYYCQQYNNWPLTFGGGTKVEIK
# Assays:
# [1] = biological target: T1, monkey TIM-3 on CHOK1 stable cell line …; assay: FACS, CHOK1-cTIM-3 cells, 0.064 nM antibody
# [2] = biological target: T2, murine TIM-3 extracellular domain …; assay: ELISA, coated mouse TIM-3 ECD protein, 0.0007 nM antibody
# [3] = biological target: T3, human TIM-3 extracellular domain …; assay: FACS, blocking of hTIM-3-hFc binding to phosphatidylserine on apoptotic Jurkat cells, 0 nM antibody
# Protocol: (§1) Jurkat cells were treated with 1 μM staurosporine at 37° C. for 2 hours to induce apoptosis. The presence of phosphatidylserine was detected by Annexin V-FITC cell apoptosis detection kit. […] The cells were washed 1-2 times with PBS buffer, and after cell counting, the cells were diluted to 1-2×10⁶ cells per milliliter with binding buffer, and added to a 96-well FACS reaction plate at 100 microliters per well. The antibody sample to be tested and 2 μg/ml hTIM-3-hFc protein were prepared with binding buffer, and mixed equally in volume. The mixture was incubated at room temperature for 30 minutes, then the FACS reaction plate incubated with apoptotic cells was centrifuged to discard the supernatant, and the above mixture was added to the apoptotic cells at 100 microliters per well and incubated at room temperature for 1 hour. The plate was washed twice with the binding buffer by centrifugation, added with 100 microliters of fluorescent (Alexa 488)-labeled secondary antibodies per well, and incubated for half an hour. The plate was washed 2-3 times with the binding buffer by centrifugation, added with 100 microliters of PBS per well to suspend cells, and detected using FACS (FACS Calibur, BD) and the results were analyzed. The results are shown in Table 15 and FIG. 15, wherein the IgG control is human IgG, and the data in the table is the inhibition rate (%).
# [4] = biological target: T3, human TIM-3 extracellular domain …; assay: FACS, blocking of hTIM-3-hFc binding to phosphatidylserine on apoptotic Jurkat cells, 200 nM antibody
# Protocol: as §1
# [5] = biological target: T3, human TIM-3 extracellular domain …; assay: FACS, blocking of hTIM-3-hFc binding to phosphatidylserine on apoptotic Jurkat cells, 0.274 nM antibody
# Protocol: as §1
binder,measurement,setting,value
B1,Mean fluorescence intensity,[1],44
same,OD450,[2],0.21
same,Inhibition ratio (%),[3],1.4%
same,Inhibition ratio (%),[4],56.1%
same,Inhibition ratio (%),[5],5.4%

# From patent publication US20220033501A1 (SHANGHAI PHARMAEXPLORER, published 2022)
